Measured values published in patent US20040141918.

Test system: Int6 protein expressed in bacteria using the QUIA Express Type 4 vector, purified
Sequence (chain, as listed by the source): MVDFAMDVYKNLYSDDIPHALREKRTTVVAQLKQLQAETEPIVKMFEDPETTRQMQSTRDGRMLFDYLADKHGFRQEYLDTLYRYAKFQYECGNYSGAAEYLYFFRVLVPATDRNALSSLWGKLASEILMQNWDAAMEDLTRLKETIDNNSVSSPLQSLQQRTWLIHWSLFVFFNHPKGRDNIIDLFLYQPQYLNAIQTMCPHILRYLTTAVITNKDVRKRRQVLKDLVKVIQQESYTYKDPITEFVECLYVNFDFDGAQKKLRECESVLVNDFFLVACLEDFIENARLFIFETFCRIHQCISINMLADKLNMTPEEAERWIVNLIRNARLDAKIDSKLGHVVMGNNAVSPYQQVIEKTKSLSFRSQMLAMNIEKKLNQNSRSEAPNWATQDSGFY

## protein kinase C
  phosphorylation by PKC: shown to be phosphorylated by PKC (data not shown)
